Ends that are not written are not given here.
Biological target: Aβ(1-42) fibrils 1-42 (Homo sapiens, UniProt P05067)
Test: SPR

Chain of Aβ(1-42) fibrils 1-42 (P05067 1-42): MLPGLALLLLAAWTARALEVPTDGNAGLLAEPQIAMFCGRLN

Row | Binder | Kd [µM]
1 | LPFFD [LPFFD peptide] | 317
2 | LPFFD (also: conjugated to AGuIX nanoparticle via PEG, labelled with Cy5.5, attachment sites not given here) [AGuIX@PEG@LPFFD@Cy5.5] | 261

Reference: paper PMC4960888 (2016)
